Results on 1 molecule are retold here after patent publication US6689362B1, “Method for treating T-lineage leukemias and lymphomas using a CD7-specific monoclonal antibody (TXU-7) linked to the pokeweed antiviral protein (PAP)” (priority 1997, dated 2004).

The test system of data set [1] is BALB/c mice. Description: Acute toxicity of PAP, single i.v. injection. The data set is classed as in vivo. How it is done:
Female BALB/c mice weighing approximately 20 grams were given a single intravenous injection of purified PAP (Lot #P-1993) via the tail vein. Eight different doses were used ranging from 10 μg to 175 μg and each dose was tested in 5 mice. Mice were monitored for 30 days for morbidity and mortality. […] This non-toxic dose is >90-fold higher than the highest PAP dose that will be given to patients as a TXU-7 antibody conjugate. Deaths were observed only in the groups receiving 150 μg/20 g mouse (=7.5 mg/kg) or higher doses.

For data set [2], the system named is ribosomes (nuclease-treated rabbit reticulocyte lysate). The data set can be described thus: Cell-free protein synthesis inhibition assay (rabbit reticulocyte cell-free translation). The data set is classed as biochemical. How it is done: The ribosome-inhibiting activity of PAP was analyzed in a cell-free translation system obtained in kit form from Promega Biotec, Inc. (Madison, Wis.) and based on a method developed by Pelham and Jackson. Pelham et al., Eur. J. Biochem., 67, 247 (1976). This system consists of the following: nuclease-treated rabbit reticulocyte lysate (35 μL), 1 mM animo acid mixture minus leucine (1 μl), [^3H] leucine (183 Ci/mmol, 1 mCi/mL, Amersham Corp., Arlington Hts, Ill.), 5 μl of brome mosaic virus RNA (2 μL of 0.5 μg/μL stock), and water or buffer to bring the final volume to 50 μL per assay tube. Samples are diluted in PBS and 2.5-5 μL amounts were added to the lysate. Control samples minus toxin were set up in triplicate. At 0 hr (immediately after adding [^3H]-leucine and RNA and mixing gently to start the reaction), 10 μL aliquots were removed from the control and mixed with 1 mL 1 N NaOH to stop the reaction. The control toxin-treated samples were incubated an additional 60 minutes at 37° C., at which time 10 μL samples were again removed to NaOH, mixed, and 50 μL of 30% H2O2 added to decolorize the samples.
Following 10 minutes incubation at 37° C., the tubes were transferred to an ice bath and 2 mL of cold 4% casamino acids followed by 2 mL of cold 50% trichioroacetic acid (TCA) were added to precipitate the synthesized protein. After 30 minutes on ice, the samples were filtered through GF/F glass microfiber filters (Whatman, Hillsboro, Oreg.). The extent of protein synthesis inactivation is determined as percent control response=100 ×([^3H]-leucine incorporation [mean cpm at t60′−mean cpm at t0] for the toxin-treated samples)/([^3H]-leucine incorporation [mean cpm at t60′−mean cpm at t0] for the untreated control).

Values joined by “and” are separate entries in the source; they are usually repeats but may differ in a detail not shown here. Identical values can stand only once. Like-named read-outs stand apart in the source and are kept apart here. Where only a bound is given, the exact number is not on record here.

B1: PAP: 29 kDa ribosome-inactivating protein from spring leaves of pokeweed (Phytolacca americana) (protein)
chain: VNTIIYNVGSTTISKYATFLNDLRNEAKDPSLKCYGIPMLPNTNTNPKYVLVELQGSNKKTITLMLRRNNLYVMGYSDPFETNKCRYHIFNDISGTERQDVETTLCPNANSRVSKNINFDSRYPTLESKAGVKSRSQVQLGIQILDSNIGKISGVMSFTEKTEAEFLLVAIQMVSEAARFKYIENQVKTNFNRAFNPNPKVLNLQETWGKISTAIHDAKNGVLPKPLELVDASGAKWIVLRVDEIKPDVALLNYVGGSCQTTY
Turning to B1, the “non-toxic dose relative to highest PAP dose to be given to patients as conjugate” value in data set [1] (100 μg/20 g mouse dose) is more than 90 fold. For the same molecule, the “lethal dose relative to highest PAP dose to be given to patients as TXU-7-PAP” value in data set [1] (150 μg/20 g mouse dose) is more than 60 fold. Besides, in data set [1] (i.v.), the “Acute Toxicity in Mice LD50 (i.v.)” value is reported as “LD50 (i.v.) 150 mg/mouse”. In data set [2] (purified PAP batches (n=6)), the “IC (mean SE) value, ribosome inhibitory activity (first IC value)” value stood at 0.34 ± 0.06 ng/mL; the “IC value, ribosome inhibitory activity (second IC value)” value was 3.7±1.1 ng/mL and 130.37 pM. In addition, the IC50 in data set [2] (purified PAP batches (n=6), read-out: IC value, ribosome inhibitory activity (first IC value)) turned out to be 0.0122 nM. Moreover, in data set [2] (range over PAP batches (n=6)), the “range of first IC value” lay within 0.17 to 0.58 ng/mL; the “range of second IC value” was 0.63-7.5 ng/mL and 22-263 pM. For the same molecule, in data set [2] (range over PAP batches (n=6), read-out: range of first IC value), the IC50 fell in the range of 0.006 to 0.02 nM.
